Reference: patent US20240343811A1 (SHANDONG SIMCERE BIOPHARMACUTICAL, published 2024)
Numbering of substitutions follows the chain as printed. Read-outs that look alike come from different tables or passages of the source.

Key:
[1] = biological target: T1, human CD16a (158V), full length, on cells (human, UniProt P08637 17-254); experiment: FACS on FlpinCHO cells
T1 construct: also used as target for the bought Jurkat-NFAT reporter line stably expressing human CD16a (158V); also called FlpinCHO-human CD16a (158V); FlpinCHO-CD16a (158V)
Description: (§1) The required cells were scale-up cultured in a T-75 cell culture flask to the logarithmic growth phase. The medium was aspirated, and the cells were washed twice with a PBS buffer and then digested with trypsin. After the digestion was terminated, the cells were washed twice with the PBS buffer. The cells were counted, and then the cell pellet was resuspended with a [PBS+2% (w/w) BSA] blocking solution to 2×10⁶ cells/ml, and added to a 96-well FACS reaction plate at 50 μl/well. […] 50 μl/well of the antibody to be detected was added at different concentrations, and incubated on ice for 1 hour. […] The mixture was centrifuged and washed 5 times with PBS, and FACS (FACS Canto II, purchased from BD Company) was used for detection and result analysis. Data analysis was performed by software (CellQuest) to obtain the mean fluorescence intensity (MFI) of the cells. Then, software (GraphPad Prism8) was used for analysis, data fitting and EC50 value calculation.

[2] = biological target: T2, human CD16a (158F), full length, on FlpinCHO cells (human, UniProt P08637 17-254); experiment: FACS on FlpinCHO cells
Description: as §1

[3] = biological target: T1, human CD16a (158V), full length, on …; experiment: FACS, biotinylated antibody
Description: as §1, with “The” for “The required cells were scale-up cultured in a T-75 cell culture flask to the logarithmic growth phase. The”
(§2) An antibody to be detected was labeled in advance according to the instructions of a biotin labeling kit (EZ-Link™ NHS-PEG4 Biotinylation Kit, purchased from Thermofisher Scientific, catalog number: 21455). […] Detection was performed according to the method of Example 3.1, wherein the biotinylated antibody was detected with fluorescein APC-labeled Streptavidin (High Concentration) (purchased from Biolegend, catalog number: 405243).

[4] = biological target: T2, human CD16a (158F), full length, on …; experiment: FACS, biotinylated antibody
Description: as §1, with “The” for “The required cells were scale-up cultured in a T-75 cell culture flask to the logarithmic growth phase. The”
as §2

[5] = biological target: T1, human CD16a (158V), full length, on …; experiment: FACS, biotinylated antibody, +10 mg/mL human immunoglobulin
Description: as §1, with “The” for “The required cells were scale-up cultured in a T-75 cell culture flask to the logarithmic growth phase. The”
as §2

[6] = biological target: T2, human CD16a (158F), full length, on …; experiment: as above
Description: as §1, with “The” for “The required cells were scale-up cultured in a T-75 cell culture flask to the logarithmic growth phase. The”
as §2

[7] = biological target: T3, Human CD16a (158F)-his (human); experiment: SPR (Biacore), antibody captured on Protein A
T3 construct: entry holds ECD, AVI tag, linker and His tag
Description: (§3) A sample buffer and a running buffer were HBS-EP+ (10 mM HEPES, 150 mM NaCl, 3 mM EDTA and 0.05% surfactant P20) (GE Healthcare; BR-1006-69). The flow-through cell was set to 25° C. The sample block was set to 16° C. Both were pretreated with the running buffer. In each cycle, an antibody to be detected was first captured with a Protein A chip, and then a single concentration of CD16 antigen protein was injected. The binding and dissociation processes of the antibody and the antigen protein were recorded, and finally Glycine pH 1.5 (GE Healthcare; BR-1003-54) was used to complete chip regeneration. Binding was measured by injecting different concentrations of recombinant human CD16-ECD his proteins in a solution for 240 s with a flow rate of 30 μL/min, wherein a total of 5 concentrations were prepared by using 200 nM as a starting concentration (see the detailed results for the actual concentration in the test) and performing a 1:1 dilution. The dissociation phase was monitored for up to 600 s and was triggered by switching from a sample solution to a running buffer. The surface was regenerated by washing with a 10 mM glycine solution (pH 1.5) for 30 s at a flow rate of 30 μL/min. Bulk refractive index difference was corrected by subtracting the response obtained from the goat anti-human Fc surface. Blank injection was also subtracted (=double reference). For calculation of apparent KD and other kinetic parameters, Langmuir 1:1 model was used.

[8] = biological target: T4, Human CD16a (158V)-his (human); experiment: SPR (Biacore), antibody captured on Protein A
T4 construct: entry holds ECD, AVI tag, linker and His tag
Description: as §3

[9] = biological target: T5, Human CD16b (NA1)-his (human); experiment: SPR (Biacore), antibody captured on Protein A
T5 construct: entry holds ECD, linker, His tag and AVI tag
T5 chain: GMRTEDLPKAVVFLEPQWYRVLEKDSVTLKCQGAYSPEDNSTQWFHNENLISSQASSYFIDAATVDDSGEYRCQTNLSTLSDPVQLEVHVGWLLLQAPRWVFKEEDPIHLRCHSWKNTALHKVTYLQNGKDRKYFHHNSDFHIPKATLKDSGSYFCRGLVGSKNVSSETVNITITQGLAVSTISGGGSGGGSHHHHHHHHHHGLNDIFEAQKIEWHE
Description: as §3

[10] = biological target: T6, human CD16b (NA1), full length, on FlpinCHO cells (human, UniProt O75015 17-200); experiment: FACS on FlpinCHO cells
T6 construct: also called FlpinCHO-human CD16b (NA1)
T6 chain: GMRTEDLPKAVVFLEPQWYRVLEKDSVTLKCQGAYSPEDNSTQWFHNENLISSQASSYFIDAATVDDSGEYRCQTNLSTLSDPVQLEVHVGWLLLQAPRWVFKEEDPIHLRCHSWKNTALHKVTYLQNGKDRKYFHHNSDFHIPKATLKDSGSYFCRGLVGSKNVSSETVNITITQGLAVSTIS
Description: as §1
(§4) The binding of an antibody to be detected to FlpinCHO-human CD16b cells was detected according to the method of Example 3.1.

[11] = biological target: T7, human CD16b (NA2), full length, on FlpinCHO cells (human, UniProt O75015 17-200); experiment: FACS on FlpinCHO cells
T7 construct: also called FlpinCHO-human CD16b (NA2)
T7 chain: T6 chain with R20S, N49S, D66N, V90I
Description: as §1, §4

[12] = biological target: T1, human CD16a (158V), full length, on …; experiment: cell-based or functional assay
[13] = biological target: T8, CD16 on primary human NK cells (human, UniProt P08637 17-254); experiment: FACS on human NK cells
T8 construct: whole, on cells; also called resting NK cells
Description: as §1
The binding of an antibody to be detected to freshly prepared human NK cells (Milestone Biotechnologies, catalog number: PB56-N-Custom) was detected according to the method of Example 3.1.

[14] = biological target: T6, human CD16b (NA1), full length, on …; experiment: FACS on FlpinCHO cells
Description: as §1, §4

[15] = biological target: T7, human CD16b (NA2), full length, on …; experiment: FACS on FlpinCHO cells
Description: as §1, §4

[16] = biological target: T1, human CD16a (158V), full length, on …; experiment: FACS on FlpinCHO cells; remark: listed apart in the source
Description: as §1
(§5) The binding of a humanized antibody to FlpinCHO-human CD16a cells was detected according to the method of Example 3.1.

[17] = biological target: T2, human CD16a (158F), full length, on …; experiment: FACS on FlpinCHO cells; remark: listed apart in the source
Description: as §1, §5

[18] = biological target: T9, cynomolgus monkey CD16, full length, on FlpinCHO cells (cynomolgus monkey, UniProt Q8SPW2 17-254); experiment: FACS on FlpinCHO cells
T9 construct: also called FlpinCHO-cyno CD16; Flipin CHO-cyno CD16
T9 sequence (Q8SPW2 other isoform, or with tags, fused parts or gaps limits assumed): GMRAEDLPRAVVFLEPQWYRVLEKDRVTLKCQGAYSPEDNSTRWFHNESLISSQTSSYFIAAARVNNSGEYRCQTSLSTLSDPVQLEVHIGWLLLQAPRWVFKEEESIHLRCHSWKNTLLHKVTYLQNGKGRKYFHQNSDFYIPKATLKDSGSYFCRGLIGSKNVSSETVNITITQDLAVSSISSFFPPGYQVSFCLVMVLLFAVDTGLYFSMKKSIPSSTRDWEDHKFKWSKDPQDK
Description: as §1
Flipin CHO-cyno CD16 cells were subjected to FACS detection and data analysis according to the method of Example 3.1.

[19] = biological target: T1, human CD16a (158V), full length, on …; experiment: cell-based or functional assay; remark: listed apart in the source

B1: VHH01 VHH-Fc antibody (Fc fusion)
chain: QVQLVESGGGLVQAGGSLRLSCVASRSTLTTYAVRWYRQAPGKQREWVAFISVDGNTNYPDSVKGRFIVSRDNAKNTVYLQMNSLKPEDTADYICRAGGQYWGQGTQVTVSSEPKSSDKTHTCPPCPAPEFEGGPSVFLFPPKPKDTLMISRTPEVTCVVVAVSHEDPEVKFNWYVDGVEVHNAKTKPREEQYNSTYRVVSVLTVLHQDWLNGKEYKCKVSNKALPAPIEKTISKAKGQPREPQVYTLPPSREEMTKNQVSLTCLVKGFYPSDIAVEWESNGQPENNYKTTPPVLDSDGSFFLYSKLTVDKSRWQQGNVFSCSVMHEALHNHYTQKSLSLSPGK
EC50 [1]: 0.47 nM | Maximum mean fluorescence intensity [1]: 5000 | EC50 [2]: 0.91 nM | Maximum mean fluorescence intensity [2]: 4010 | EC50 [3]: 0.47 nM | Maximum mean fluorescence intensity [3]: 6400 | EC50 [4]: 0.56 nM | Maximum mean fluorescence intensity [4]: 4940 | EC50 [5]: 1.15 nM | Maximum mean fluorescence intensity [5]: 9000 | EC50 [6]: 1.21 nM | Maximum mean fluorescence intensity [6]: 6850 | Kd [7]: 108 nM | koff [7]: 0.00831 s⁻¹ | kon [7]: 76600 M⁻¹ s⁻¹ | Kd [8]: 27 nM | koff [8]: 0.00373 s⁻¹ | kon [8]: 138000 M⁻¹ s⁻¹ | Kd [9]: 95.7 nM | koff [9]: 0.0485 s⁻¹ | kon [9]: 507000 M⁻¹ s⁻¹ | EC50 [10]: 0.85 nM | Maximum mean fluorescence intensity [10]: 49700 | Maximum mean fluorescence intensity [11]: 95 | binding result [11]: no binding (tested: 100 nM) | EC50, activation activity for Jurkat cell [12]: 0.09 nM | Maximum fluorescence value [12]: 178000

B2: VHH04 VHH-Fc antibody (Fc fusion)
chain: B1 chain with A24G, R26S, S84N
EC50 [1]: 0.68 nM | Maximum mean fluorescence intensity [1]: 7660 | EC50 [2]: 0.66 nM | Maximum mean fluorescence intensity [2]: 7240 | EC50 [3]: 0.65 nM | Maximum mean fluorescence intensity [3]: 9200 | EC50 [4]: 0.32 nM | Maximum mean fluorescence intensity [4]: 6160 | EC50 [5]: 1.51 nM | Maximum mean fluorescence intensity [5]: 10400 | EC50 [6]: 1.51 nM | Maximum mean fluorescence intensity [6]: 7580 | Kd [7]: 23.4 nM | koff [7]: 0.00128 s⁻¹ | kon [7]: 54700 M⁻¹ s⁻¹ | Kd [8]: 8.93 nM | koff [8]: 0.000738 s⁻¹ | kon [8]: 82600 M⁻¹ s⁻¹ | Kd [9]: 21.6 nM | koff [9]: 0.00265 s⁻¹ | kon [9]: 122000 M⁻¹ s⁻¹ | EC50 [10]: 1.33 nM | Maximum mean fluorescence intensity [10]: 41400 | Maximum mean fluorescence intensity [11]: 351 | binding result [11]: no binding (tested: 100 nM) | EC50 [13]: 0.74 nM | Maximum mean fluorescence intensity [13]: 2430 | EC50, activation activity for Jurkat cell [12]: 0.03 nM | Maximum fluorescence value [12]: 161000

B3: VHH12-04 humanized VHH-Fc antibody (Fc fusion)
chain: EVQLVESGGGLVQPGGSLRLSCAASGITFSSYAMGWYRQAPGKQRELVAAINRFGLTNYADFVKGRFTISRDNAKNSLYLQMNSLRAEDTAVYYCNTGGVYSHPDYYTGTYWGQGTMVTVSSEPKSSDKTHTCPPCPAPEEFGGPSVFLFPPKPKDTLMISRTPEVTCVVVAVSHEDPEVKFNWYVDGVEVHNAKTKPREEQYNSTYRVVSVLTVLHQDWLNGKEYKCKVSNKALPAPIEKTISKAKGQPREPQVYTLPPSREEMTKNQVSLTCLVKGFYPSDIAVEWESNGQPENNYKTTPPVLDSDGSFFLYSKLTVDKSRWQQGNVFSCSVMHEALHNHYTQKSLSLSPGK
EC50 [14]: 1.37 nM | Maximum mean fluorescence intensity [14]: 47200 | Maximum mean fluorescence intensity [15]: 75400 | Kd [7]: 50.5 nM | koff [7]: 0.0307 s⁻¹ | kon [7]: 607000 M⁻¹ s⁻¹ | EC50 [16]: 0.47 nM | Maximum mean fluorescence intensity [16]: 8090 | EC50 [17]: 0.47 nM | Maximum mean fluorescence intensity [17]: 9410 | EC50 [18]: 0.64 nM | Maximum mean fluorescence intensity [18]: 18300 | EC50, activation activity for Jurkat cell [19]: 0.01 nM | Maximum fluorescence value [19]: 162000

B4: VHH12-07 humanized VHH-Fc antibody (Fc fusion)
chain: B3 chain with A60V, F62S, M117Q
EC50 [14]: 1.25 nM | Maximum mean fluorescence intensity [14]: 45500 | Maximum mean fluorescence intensity [15]: 73200 | Kd [7]: 55.8 nM | koff [7]: 0.032 s⁻¹ | kon [7]: 574000 M⁻¹ s⁻¹ | EC50 [16]: 0.48 nM | Maximum mean fluorescence intensity [16]: 7950 | EC50 [17]: 0.46 nM | Maximum mean fluorescence intensity [17]: 9180 | EC50 [18]: 0.68 nM | Maximum mean fluorescence intensity [18]: 18500 | EC50, activation activity for Jurkat cell [19]: 0.03 nM | Maximum fluorescence value [19]: 153000
